Eight molecules from article PMC2894021, “Transcriptional control by two leucine-responsive regulatory proteins in Halobacterium salinarum R1” (BMC Molecular Biology, 2010) can be followed below.

The target in data set [1] is T1, LrpA1 (Halobacterium salinarum R1) (UniProt B0R4X4).
T1 sequence: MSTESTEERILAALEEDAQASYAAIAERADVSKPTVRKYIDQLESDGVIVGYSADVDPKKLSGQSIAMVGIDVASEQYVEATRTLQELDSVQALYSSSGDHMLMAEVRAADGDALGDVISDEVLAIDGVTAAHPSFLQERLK
The data set can be described thus: DNA-affinity chromatography (pull-down), SDS-PAGE densitometry. The following applies: CFE buffer: 3 M KCl, 1 M NaCl, 5 mM MgCl2, 10 mM HEPES pH 7.1; room temperature, 4 h; 2 nmol LrpA1, 61 pmol biotinylated DNA; elution with 1% SDS.

Data set [2] relates to LrpA1 (Halobacterium salinarum R1). The description is as above. The following applies: CFE buffer: 3 M KCl, 1 M NaCl, 5 mM MgCl2, 10 mM HEPES pH 7.1, room temperature, 4 h, 2 nmol LrpA1, 61 pmol biotinylated DNA.
In data set [3] the target is LrpA1 (Halobacterium salinarum, UniProt B0R4X4). The data set can be described thus: analytical DNA-affinity chromatography with aspB3 promoter, SDS-PAGE densitometry. The class given is biochemical. The following applies: 5 mM L-aspartate; 3 M KCl, 1 M NaCl, 5 mM MgCl2, 10 mM HEPES, pH 7.1; room temperature, 4 h; effector of DNA binding, indirect read-out.
Data set [4] concerns the molecule itself. The data set can be described thus: SEC; Superdex 200 3.2/3 column on a SMART device, 50 ul per min, CFE buffer (3 M KCl; 1 M NaCl; 10 mM HEPES, pH 7.1); LrpA1-His6 after renaturation; monomer to dimer. On the technique in general: Size exclusion chromatography separates by hydrodynamic size, large species first.

Consider “ACGACACCGGGTCGTTTTGATTGTCGGCTACGTGTCGCAGTGTTGGCGGTAGCGCCGCTCCAACGGTGGTTCCGTGGCGTTCCGCTGTCGGTTGACGATTCGGAAGATATTTTTTCACACGAACCAAATATCCTGACGTGAGCACTGAATCGACAGAAGAGCGAATCCTCGCCGCGCTCGAAGAGGACGCGCAAGCGTCGTATGCGGCCATCGCGGAGCGTGCGGACGTCTCCA (double strand) [lrpA1-Pincl]”, for which the binding signal (% band density) in data set [1] came to 100.

In data set [1], “ACGACACCGGGTCGTTTTGATTGTCGGCTACGTGTCGCAGTGTTGGCGGTAGCGCCGCTCCAACGGTGGTTCCGTGGCGTTCCGCTGTCGGTTGACGATTCGGAAGATACCCTTTCACACGAACCCCCTATCCTGACGTGAGCACTGAATCGACAGAAGAGCGAATCCTCGCCGCGCTCGAAGAGGACGCGCAAGCGTCGTATGCGGCCATCGCGGAGCGTGCGGACGTCTCCA (double strand) [lrpA1-Pincl (mutated)]” registered a binding signal (% of lrpA1-Pincl) of 24.

Regarding aspB3-Pincl, the binding signal (% band density) was 100 in data set [2] (5 mM L-arginine, text: binding not enhanced by arginine, elution with 1% SDS) and 100 in data set [2] (5 mM L-aspartate, elution with 1% SDS). Further, the binding signal (% of aspB3-Pincl + 5 mM Arg) in data set [2] (no amino acid (arginine experiment), elution with 1% SDS) stood at 77. The binding signal (% of aspB3-Pincl + 5 mM Asp) in data set [2] (no amino acid (aspartate experiment), elution with 1% SDS) was determined as 34.

As to `N[C@@H](CC(=O)O)C(=O)O` [L-aspartate], the “relative binding efficiency to aspB3-Pincl DNA” value in data set [3] is recorded as “resulting in significantly enhanced binding of LrpA1 to the aspB3Pincl sequence”.

In turn, “ATCGCGCTTGAACGTCTGCATACGTCCGCTACGCACCAGGCGCGCAAAACTTCAGGGGGTTCGGGACCCGCGGGTTGTGCCGTGATAGCACACGCGTCCCGCAGGAACGATTATGAGGGATGGCCGCGATCCTGCTGGCATGCCTTCGGAGCGCGCGGCTGCGGTCACGCCGTTCGCCGCGATGGATGTCCTCGAACGCGCCGCCGAC (double strand) [aspB3-Pincl]” came in with a binding signal (% band density) in data set [1] of 100.

In turn, lrpA1-Pincl displayed a binding signal (% band density) in data set [2] (no amino acid, elution with 1% …) of 100.

flgB1 control DNA: in data set [2] (5 mM L-arginine, non-specific background, elution with 1% SDS), the binding signal (% of aspB3-Pincl + 5 mM Arg) is 30. The binding signal (% of aspB3-Pincl + 5 mM Asp) in data set [2] (5 mM L-aspartate, non-specific background, elution with 1% SDS) stood at 7. The molecule further showed a binding signal (% of lrpA1-Pincl) in data set [2] (no amino acid, non-specific background, elution with 1% SDS) of 37.

B1: H. salinarum LrpA1 (OE2621R), His6-tagged (natural protein, Halobacterium salinarum R1, UniProt B0R4X4 1-142, looked up)
chain: MSTESTEERILAALEEDAQASYAAIAERADVSKPTVRKYIDQLESDGVIVGYSADVDPKKLSGQSIAMVGIDVASEQYVEATRTLQELDSVQALYSSSGDHMLMAEVRAADGDALGDVISDEVLAIDGVTAAHPSFLQERLK
notes: Leucine-responsive regulatory protein homologue LrpA1 of Halobacterium salinarum R1, locus OE2621R; theoretical size of the monomer 15.2 kDa; amplified by PCR and cloned NdeI/XhoI into pET26b; the cloning primers are in additional file 10; also called LrpA1-His6; transcription regulator LrpA1; source: E. coli BL21(DE3), pET26b; purified on Ni-NTA in 8 M urea, renatured by dialysis against high …
One may read the stoichiometry N as the number of molecules, sites or subunits per partner or assembly. On to B1, for which, in data set [4], the “stoichiometry N” value was 2.
